Results: patent publication US20230218738A1 (Pfizer, published 2023)
Positions count from the first letter of the chain named.

T1: RSV F protein mutant pXCS785 (RSV A2, UniProt P03420 26-109)
T1 chain 1: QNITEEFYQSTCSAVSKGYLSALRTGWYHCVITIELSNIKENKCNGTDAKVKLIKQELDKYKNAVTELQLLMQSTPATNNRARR
T1 chain 2: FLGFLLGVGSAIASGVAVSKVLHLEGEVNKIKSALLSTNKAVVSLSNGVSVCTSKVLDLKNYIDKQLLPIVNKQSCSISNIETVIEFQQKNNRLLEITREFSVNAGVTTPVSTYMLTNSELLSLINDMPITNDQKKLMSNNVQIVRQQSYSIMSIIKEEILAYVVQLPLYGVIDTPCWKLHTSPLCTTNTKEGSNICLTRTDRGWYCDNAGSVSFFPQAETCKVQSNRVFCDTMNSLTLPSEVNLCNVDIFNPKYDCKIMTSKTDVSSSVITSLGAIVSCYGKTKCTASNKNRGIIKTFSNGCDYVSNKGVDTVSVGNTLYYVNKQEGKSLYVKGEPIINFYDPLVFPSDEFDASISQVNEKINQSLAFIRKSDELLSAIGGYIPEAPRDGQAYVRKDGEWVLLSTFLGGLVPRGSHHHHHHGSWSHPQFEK

T2: RSV F protein mutant pXCS830 (RSV A2, UniProt P03420 26-109)
T2 chain 1: T1 chain 1
T2 chain 2: T1 chain 2 with S54I, I160V

T3: RSV F protein mutant pXCS856 (RSV A2, UniProt P03420 26-109)
T3 chain 1: T1 chain 1
T3 chain 2: T1 chain 2 with D350S

T4: RSV F protein mutant pXCS880 (RSV A2, UniProt P03420 26-109)
T4 chain 1: T1 chain 1
T4 chain 2: T1 chain 2 with L6C, S54I, I160V, N235C, D350S, E351Q, D353S

T5: RSV F protein mutant pXCS734 (RSV A2, UniProt P03420 26-109)
T5 chain 1: T1 chain 1
T5 chain 2: T1 chain 2 with L6C, I160V, N235C

B1: MPE8 (antibody, V domains shown)
VH: EVQLVESGGGLVKPGGSLRLSCAASGFTFSSYSMNWVRQAPGKGLEWVSSISASSSYSDYADSAKGRFTISRDNAKTSLFLQMNSLRAEDTAIYFCARARATGYSSITPYFDIWGQGTLVTVSS
VL: QSVVTQTPSVSGAPGQRVTISCTGSSSNIGAGYDVHWYQQLPGTAPKLLIYDNNNRPSGVPDRFSASKSGTSASLAITGLQAEDEADYYCQSYDRNLSGVFGTGTKVTVL
notes: also called MPEG
B2: AM22 (antibody, V domains shown)
VH: QVQLVQSGAEVKKPGATVKVSCKISGHTLIKLSIHWVRQAPGKGLEWMGGYEGEVDEIFYAQKFQHRLTVIADTATDTVYMELGRLTSDDTAVYFCGTLGVTVTEAGLGIDDYWGQGTLVTVSS
VL: EIVLTQSPGTLSLSPGERATLSCRASQIVSRNHLAWYQQKPGQAPRLLIFGASSRATGIPVRFSGSGSGTDFTLTINGLAPEDFAVYYCLSSDSSIFTFGPGTKVDFK

Experiments:
Assay in all cases: BLI (Octet), F on anti-HIS tip, 20 nM mAb
[1] = target: T1, RSV F protein mutant pXCS785
[2] = target: T2, RSV F protein mutant pXCS830
[3] = target: RSV F protein mutant pXCS848 (RSV A2, UniProt P03420 26-109)
[4] = target: RSV F protein mutant pXCS850 (RSV A2, UniProt P03420 26-109)
[5] = target: RSV F protein mutant pXCS853 (RSV A2, UniProt P03420 26-109)
[6] = target: T3, RSV F protein mutant pXCS856
[7] = target: T4, RSV F protein mutant pXCS880
[8] = target: RSV F protein mutant pXCS891 (RSV A2, UniProt P03420 26-109)
[9] = target: T5, RSV F protein mutant pXCS734

Binder	Response (nm shift) [1]	Response (nm shift) [2]	Response (nm shift) [3]	Response (nm shift) [4]	Response (nm shift) [5]	Response (nm shift) [6]	Response (nm shift) [7]	Response (nm shift) [8]	Response (nm shift) [9]
B1	0.937 nm	0.923 nm	0.266 nm	1.04 nm	0.905 nm	1.06 nm	0.684 nm	0.92 nm	0.818 nm
B2	0.465 nm	0.465 nm	0.109 nm	0.517 nm	0.484 nm	0.568 nm	0.213 nm	0.461 nm	0.284 nm
